The values below come from article PMC5507356, “Characterization of the molecular chaperone ClpB from the pathogenic spirochaete Leptospira interrogans” (PLoS ONE, 2017).

This data set deals with the molecule itself. Put plainly: AUC; sedimentation velocity, 1.2 mg/ml ClpBLi with 2 mM ATPγS, 20°C, 50 mM Tris-HCl pH 7.5, 200 mM KCl, 20 mM MgCl2, 1 mM EDTA, 2 mM β-mercaptoethanol, 5% glycerol.

B1: ClpB from Leptospira interrogans (ClpBLi), recombinant (natural protein)
chain: not shown
notes: Chaperone protein ClpB, Leptospira interrogans; intact protein runs at ~100 kDa; Monomer without nucleotide, hexamer with ATPγS; source: E. coli BL21(DE3), purified (Co-NTA IMAC, Superdex 200 gel filtration); not shown: His6, N-terminal, cleaved
As usually defined, the stoichiometry N is a count of units in the complex or per binding partner. On to B1, for which the “stoichiometry N” value came out at 6.
